Experimental data from article PMC6856128 (Scientific Reports, 2019).

Biological target: the molecule itself
Assay: SEC

B1: Mycobacterium tuberculosis CysA2 (enzyme)
chain: MARCDVLVSADWAESNLHAPKVVFVEVDEDTSAYDRDHIAGAIKLDWRTDLQDPVKRDFVDAQQFSKLLSERGIANEDTVILYGGNNNWFAAYAYWYFKLYGHEKVKLLDGGRKKWELDGRPLSSDPVSRPVTSYTASPPDNTIRAFRDEVLAAINVKNLIDVRSPDEFSGKILAPAHLPQEQSQRPGHIPGAINVPWSRAANEDGTFKSDEELAKLYADAGLDNSKETIAYCRIGERSSHTWFVLRELLGHQNVKNYDGSWTEYGSLVGAPIELGS
stoichiometry N: 2
